Experimental data as given in article PMC3505834 (Nature immunology, 2012).

Molecular target: T1, recombinant soluble CD46 (CCP1-4) (human, UniProt P15529 35-285)
T1 sequence (looked up): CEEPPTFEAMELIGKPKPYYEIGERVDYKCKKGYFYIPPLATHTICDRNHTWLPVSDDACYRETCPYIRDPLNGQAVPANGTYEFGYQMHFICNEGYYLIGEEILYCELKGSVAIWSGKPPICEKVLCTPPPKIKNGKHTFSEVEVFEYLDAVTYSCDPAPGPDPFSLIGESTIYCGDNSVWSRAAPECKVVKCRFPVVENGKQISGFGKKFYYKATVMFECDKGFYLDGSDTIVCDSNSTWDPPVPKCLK
Assay: SPR

- Kd: ~8 µM
B1: J-1_(DSL-EGF3), recombinant Jagged1 construct of the DSL and first three EGF-like domains (domain or fragment)
chain: not shown
modifications: c-terminally biotinylated
